For this assay, the target named is Human recombinant Sortilin chimera protein from R&D Systems (#3154-ST) (human) (UniProt Q99523). Put plainly: SPR (Biacore), Sortilin immobilized on CM5 chip, ligand injected.
Human recombinant Sortilin chimera protein from R&D Systems (#3154-ST) (human), sequence (Q99523 78-755, change not shown): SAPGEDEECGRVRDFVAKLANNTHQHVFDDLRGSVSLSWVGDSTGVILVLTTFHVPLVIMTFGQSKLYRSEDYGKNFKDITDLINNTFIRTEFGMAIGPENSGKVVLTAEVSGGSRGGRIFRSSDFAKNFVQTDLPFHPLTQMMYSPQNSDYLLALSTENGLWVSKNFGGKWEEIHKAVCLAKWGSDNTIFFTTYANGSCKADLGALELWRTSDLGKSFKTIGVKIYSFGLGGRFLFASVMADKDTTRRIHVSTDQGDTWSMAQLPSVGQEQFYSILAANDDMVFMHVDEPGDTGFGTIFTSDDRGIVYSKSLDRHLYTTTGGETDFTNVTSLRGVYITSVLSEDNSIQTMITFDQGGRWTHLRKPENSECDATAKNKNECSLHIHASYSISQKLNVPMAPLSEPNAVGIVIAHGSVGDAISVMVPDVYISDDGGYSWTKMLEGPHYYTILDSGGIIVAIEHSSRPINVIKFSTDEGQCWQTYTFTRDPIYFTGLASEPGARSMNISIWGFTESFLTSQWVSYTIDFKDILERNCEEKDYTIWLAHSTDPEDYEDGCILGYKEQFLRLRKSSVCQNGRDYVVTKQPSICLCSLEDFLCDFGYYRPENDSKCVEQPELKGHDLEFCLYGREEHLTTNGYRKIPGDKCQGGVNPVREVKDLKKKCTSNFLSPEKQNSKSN

On to “Neurotensin, P30990 151-163 (peptide; modification not given)”, for which the dissociation constant Kd turned out to be 117 nM. Then “Receptor-Associated Protein (RAP) (ligand)”, with 4.2 nM.

(Values after patent publication US20200157151A1, “PEPTIDE COMPOUNDS, CONJUGATE COMPOUNDS AND USES THEREOF FOR TREATING INFLAMMATORY DISEASES” (TRANSFERT PLUS, S.E.C., priority 2017, published 2020).)
